Numbered stars: 1 amine (or outer) side, 2 acyl side, 3 side chain; on linkers, the order of the positions; unused ones are H or OH. Square brackets hold non-standard residues; d marks the D form. Side chains are listed from the residue outwards. Ends that are not written are not given here. * marks the point of attachment. γGlu = O=C(O)[C@H](CCC(=O)[*:2])N[*:1]; Palmitoyl = CCCCCCCCCCCCCCCC(=O)*; Met(O) = CS(=O)CC[C@H](N)C(=O)O; Myristoyl = CCCCCCCCCCCCCC(=O)*; Nle = CCCC[C@H](N)C(=O)O; Orn = NCCC[C@H](N)C(=O)O; Dab = NCC[C@H](N)C(=O)O; Dap = NC[C@H](N)C(=O)O; Aib = CC(C)(N)C(=O)O; Carbamoyl = NC(=O)*; Ahx = NCCCCCC(=O)O; βAla = NCCC(=O)O; Acm = CC(=O)NC*
B1: HSDab(Ac)…ibRRAADFVAWLLDTGPSSGAPPPS amide (peptide)
peptide: HS[Dab](Ac)GTFTSDYSKYLD[Aib]RRAADFVAWLLDTGPSSGAPPPS-NH2
modifications: N-terminus assumed
SMILES: CC(=O)NCC[C@H](NC(=O)[C@H](CO)NC(=O)[C@@H](N)Cc1c[nH]cn1)C(=O)NCC(=O)N[C@H](C(=O)N[C@@H](Cc1ccccc1)C(=O)N[C@H](C(=O)N[C@@H](CO)C(=O)N[C@@H](CC(=O)O)C(=O)N[C@@H](Cc1ccc(O)cc1)C(=O)N[C@@H](CO)C(=O)N[C@@H](CCCCN)C(=O)N[C@@H](Cc1ccc(O)cc1)C(=O)N[C@@H](CC(C)C)C(=O)N[C@@H](CC(=O)O)C(=O)NC(C)(C)C(=O)N[C@@H](CCCNC(=N)N)C(=O)N[C@@H](CCCNC(=N)N)C(=O)N[C@@H](C)C(=O)N[C@@H](C)C(=O)N[C@@H](CC(=O)O)C(=O)N[C@@H](Cc1ccccc1)C(=O)N[C@H](C(=O)N[C@@H](C)C(=O)N[C@@H](Cc1c[nH]c2ccccc12)C(=O)N[C@@H](CC(C)C)C(=O)N[C@@H](CC(C)C)C(=O)N[C@@H](CC(=O)O)C(=O)N[C@H](C(=O)NCC(=O)N1CCC[C@H]1C(=O)N[C@@H](CO)C(=O)N[C@@H](CO)C(=O)NCC(=O)N[C@@H](C)C(=O)N1CCC[C@H]1C(=O)N1CCC[C@H]1C(=O)N1CCC[C@H]1C(=O)N[C@@H](CO)C(N)=O)[C@@H](C)O)C(C)C)[C@@H](C)O)[C@@H](C)O
B2: Peptide 85 (Table 10) (peptide)
peptide: H[Aib]QGTFTSDK([Ahx-Palmitoyl])SKYLD[Aib]RRAQDFVQWLMNT-NH2
modifications: N-terminus assumed
SMILES: CCCCCCCCCCCCCCCC(=O)NCCCCCC(=O)NCCCC[C@H](NC(=O)[C@H](CC(=O)O)NC(=O)[C@H](CO)NC(=O)[C@@H](NC(=O)[C@H](Cc1ccccc1)NC(=O)[C@@H](NC(=O)CNC(=O)[C@H](CCC(N)=O)NC(=O)C(C)(C)NC(=O)[C@@H](N)Cc1c[nH]cn1)[C@@H](C)O)[C@@H](C)O)C(=O)N[C@@H](CO)C(=O)N[C@@H](CCCCN)C(=O)N[C@@H](Cc1ccc(O)cc1)C(=O)N[C@@H](CC(C)C)C(=O)N[C@@H](CC(=O)O)C(=O)NC(C)(C)C(=O)N[C@@H](CCCNC(=N)N)C(=O)N[C@@H](CCCNC(=N)N)C(=O)N[C@@H](C)C(=O)N[C@@H](CCC(N)=O)C(=O)N[C@@H](CC(=O)O)C(=O)N[C@@H](Cc1ccccc1)C(=O)N[C@H](C(=O)N[C@@H](CCC(N)=O)C(=O)N[C@@H](Cc1c[nH]c2ccccc12)C(=O)N[C@@H](CC(C)C)C(=O)N[C@@H](CCSC)C(=O)N[C@@H](CC(N)=O)C(=O)N[C@H](C(N)=O)[C@@H](C)O)C(C)C
B3: Peptide 86 (Table 10) (peptide)
peptide: H[Aib]QGTFTSDK([Leu-Leu-Palmitoyl])SKYLD[Aib]RRAQDFVQWLMNT-NH2
modifications: N-terminus assumed
SMILES: CCCCCCCCCCCCCCCC(=O)N[C@@H](CC(C)C)C(=O)N[C@@H](CC(C)C)C(=O)NCCCC[C@H](NC(=O)[C@H](CC(=O)O)NC(=O)[C@H](CO)NC(=O)[C@@H](NC(=O)[C@H](Cc1ccccc1)NC(=O)[C@@H](NC(=O)CNC(=O)[C@H](CCC(N)=O)NC(=O)C(C)(C)NC(=O)[C@@H](N)Cc1c[nH]cn1)[C@@H](C)O)[C@@H](C)O)C(=O)N[C@@H](CO)C(=O)N[C@@H](CCCCN)C(=O)N[C@@H](Cc1ccc(O)cc1)C(=O)N[C@@H](CC(C)C)C(=O)N[C@@H](CC(=O)O)C(=O)NC(C)(C)C(=O)N[C@@H](CCCNC(=N)N)C(=O)N[C@@H](CCCNC(=N)N)C(=O)N[C@@H](C)C(=O)N[C@@H](CCC(N)=O)C(=O)N[C@@H](CC(=O)O)C(=O)N[C@@H](Cc1ccccc1)C(=O)N[C@H](C(=O)N[C@@H](CCC(N)=O)C(=O)N[C@@H](Cc1c[nH]c2ccccc12)C(=O)N[C@@H](CC(C)C)C(=O)N[C@@H](CCSC)C(=O)N[C@@H](CC(N)=O)C(=O)N[C@H](C(N)=O)[C@@H](C)O)C(C)C
B4: Peptide 84 (Table 10) (peptide)
peptide: H[Aib]QGTFTSDK([βAla-βAla-Palmitoyl])SKYLD[Aib]RRAQDFVQWLMNT-NH2
modifications: N-terminus assumed
SMILES: CCCCCCCCCCCCCCCC(=O)NCCC(=O)NCCC(=O)NCCCC[C@H](NC(=O)[C@H](CC(=O)O)NC(=O)[C@H](CO)NC(=O)[C@@H](NC(=O)[C@H](Cc1ccccc1)NC(=O)[C@@H](NC(=O)CNC(=O)[C@H](CCC(N)=O)NC(=O)C(C)(C)NC(=O)[C@@H](N)Cc1c[nH]cn1)[C@@H](C)O)[C@@H](C)O)C(=O)N[C@@H](CO)C(=O)N[C@@H](CCCCN)C(=O)N[C@@H](Cc1ccc(O)cc1)C(=O)N[C@@H](CC(C)C)C(=O)N[C@@H](CC(=O)O)C(=O)NC(C)(C)C(=O)N[C@@H](CCCNC(=N)N)C(=O)N[C@@H](CCCNC(=N)N)C(=O)N[C@@H](C)C(=O)N[C@@H](CCC(N)=O)C(=O)N[C@@H](CC(=O)O)C(=O)N[C@@H](Cc1ccccc1)C(=O)N[C@H](C(=O)N[C@@H](CCC(N)=O)C(=O)N[C@@H](Cc1c[nH]c2ccccc12)C(=O)N[C@@H](CC(C)C)C(=O)N[C@@H](CCSC)C(=O)N[C@@H](CC(N)=O)C(=O)N[C@H](C(N)=O)[C@@H](C)O)C(C)C
B5: Peptide Chimera 2-AIB2-K30-acylated (peptide)
peptide: HXQGTFTSDYSKYLDEQAAKEFICWLMNTK
modifications: AIB at position 2; Lys at position 30 acylated with a C18 fatty acyl group; Cys at position 24 comprises a 40 kDa PEG molecule; C-terminal amide

The binders below were run against T1, glucagon receptor (human, UniProt P47871 26-477) (assay: cell-based or functional assay).
T1 sequence (P47871 26-477): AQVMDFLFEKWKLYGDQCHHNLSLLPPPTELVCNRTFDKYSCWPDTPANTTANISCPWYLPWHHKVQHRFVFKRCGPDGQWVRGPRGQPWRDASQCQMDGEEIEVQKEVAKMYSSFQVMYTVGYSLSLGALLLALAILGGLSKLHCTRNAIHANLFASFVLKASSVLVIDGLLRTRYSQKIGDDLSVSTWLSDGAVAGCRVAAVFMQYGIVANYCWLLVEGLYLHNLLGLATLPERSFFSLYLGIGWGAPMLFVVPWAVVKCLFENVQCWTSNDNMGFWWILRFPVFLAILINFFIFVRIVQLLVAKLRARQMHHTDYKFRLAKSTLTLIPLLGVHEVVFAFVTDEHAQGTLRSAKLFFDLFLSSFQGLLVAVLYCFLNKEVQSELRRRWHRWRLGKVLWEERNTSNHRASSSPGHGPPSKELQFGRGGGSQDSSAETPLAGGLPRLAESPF
With HSQGTFTSDYSKYLDSRRAQDFVQWLMNKK [glucagon analog K29, K30] the “Observed EC50s (nM) in Cells Overexpressing the Glucagon Receptor, Test 1” value was 0.89 nM.

Biological target: T1, glucagon receptor
Assay: cell-based or functional assay
Remark: another data set of the same source
For HS[Orn](Ac)GTFTSDYSKYLDTRRAAEFVAWL[Nle]DE [Peptide J backbone, Orn(Ac) at position 3], the “% activity*” value was 7% and the “EC50 at Glucagon Receptor” value was 0.92 nM.
HS[Dab](Ac)GTFTSDYSKYLDTRRAAEFVAWL[Nle]DE [Peptide J backbone, Dab(Ac) at position 3] was tested, and the “% activity*” value was 19% and the “EC50 at Glucagon Receptor” value was 0.31 nM.
In the case of HS[Dab](Ac)GTFTSDYSKYLD[Aib]RRAADFVAWLMDE [Peptide K backbone, Dab(Ac) at position 3], the “% activity*” value is reported as 86% and the “EC50 at Glucagon Receptor” value is reported as 0.07 nM.
HS[Dap](Carbamoyl)GTFTSDYSKYLDTRRAAEFVAWL[Nle]DE [Peptide J backbone, Dap(urea) at position 3] was tested, and the “% activity*” value was 13% and the “EC50 at Glucagon Receptor” value was 0.48 nM.
For HS[Met(O)]GTFTSDYSKYLDTRRAAEFVAWL[Nle]DE [Peptide J backbone, M(O) at position 3], the “% activity*” value was 7% and the “EC50 at Glucagon Receptor” value was 0.91 nM.
With HSC(Acm)GTFTSDYSKYLDTRRAAEFVAWL[Nle]DE [Peptide J backbone, C(Acm) at position 3] the “% activity*” value was 33%.
For HSQGTFTSDYSKYLDTRRAAEFVAWL[Nle]DE [Peptide J backbone, Q at position 3], the “% activity*” value was 25%.
In the case of HSQGTFTSDYSKYLD[Aib]RRAADFVAWLMDE [Peptide K backbone, Q at position 3], the “% activity*” value is reported as 15%.

Biological target: T1, glucagon receptor
Assay: cell-based or functional assay
Remark: another data set of the same source
In the case of B1, the “% activity*” value is reported as 113% and the “EC50 (nM) at Glucagon Receptor” value is reported as 0.023 nM.
For HS[Dab](Ac)GTFTSDYSKYLD[Aib]RRASDFVSWLLDE [HSDab(Ac)…ibRRASDFVSWLLDE], the “% activity*” value was 54% and the “EC50 (nM) at Glucagon Receptor” value was 0.048 nM.
HS[Dab](Ac)GTFTSDYSKYLD[Aib]RRATDFVTWLLDE [HSDab(Ac)…ibRRATDFVTWLLDE] was tested, and the “% activity*” value was 46% and the “EC50 (nM) at Glucagon Receptor” value was 0.057 nM.

Biological target: T1, glucagon receptor
Assay: cell-based or functional assay
Remark: another data set of the same source
For H[Aib]QGTFTSDK([Ala-Ala-Myristoyl])SKYLD[Aib]RRAQDFVC(PEG 40 kDa)WLMNT-NH2 [Peptide 81* (Table 10)], the “EC50 at Glucagon Receptor” value was 0.597 nM.
For H[Aib]QGTFTSDK([Ala-Ala-Palmitoyl])SKYLD[Aib]RRAQDFVQWLMNT-NH2 [Peptide 82 (Table 10)], the “EC50 at Glucagon Receptor” value was 0.024 nM.
H[Aib]QGTFTSDK([Ala-Ala-Palmitoyl])SKYLD[Aib]RRAQDFVC(PEG 40 kDa)WLMNT-NH2 [Peptide 79* (Table 10)] was tested, and the “EC50 at Glucagon Receptor” value was 0.102 nM.
For H[Aib]QGTFTSDK([Pro-Pro-Palmitoyl])SKYLD[Aib]RRAQDFVQWLMNT-NH2 [Peptide 87 (Table 10)], the “EC50 at Glucagon Receptor” value was 0.017 nM.
With H[Aib]QGTFTSDK([γGlu-γGlu-Palmitoyl])SKYLD[Aib]RRAQDFVC(PEG 40 kDa)WLMNT-NH2 [Peptide 80* (Table 10)] the “EC50 at Glucagon Receptor” value was 0.108 nM.
For H[Aib]QGTFTSDK(Palmitoyl)SKYLD[Aib]RRAQDFVQWLMNT-NH2 [Peptide 50 (Table 10)], the “EC50 at Glucagon Receptor” value was 0.572 nM.
In the case of H[Aib]QGTFTSDK(Myristoyl)SKYLD[Aib]RRAQDFVC(PEG 40 kDa)WLMNT-NH2 [Peptide 77* (Table 10)], the “EC50 at Glucagon Receptor” value is reported as 21.9 nM.
With B2 the “EC50 at Glucagon Receptor” value was 0.01 nM.
For H[Aib]QGTFTSDK([γGlu-γGlu-Myristoyl])SKYLD[Aib]RRAQDFVC(PEG 40 kDa)WLMNT-NH2 [Peptide 78* (Table 10)], the “EC50 at Glucagon Receptor” value was 0.319 nM.

Each binder was assayed against T2, GLP-1 receptor (UniProt P43220 24-463, limits assumed) (assay: cell-based or functional assay).
For H[Aib]QGTFTSDK([Ala-Ala-Myristoyl])SKYLD[Aib]RRAQDFVC(PEG 40 kDa)WLMNT-NH2 [Peptide 81* (Table 10)], the “EC50 at GLP-1 Receptor” value was 0.271 nM.
With H[Aib]QGTFTSDK([γGlu-γGlu-Palmitoyl])SKYLD[Aib]RRAQDFVQWLMNT-NH2 [Peptide 83 (Table 10)] the “EC50 at GLP-1 Receptor” value was 0.043 nM.
H[Aib]QGTFTSDK([Ala-Ala-Palmitoyl])SKYLD[Aib]RRAQDFVQWLMNT-NH2 [Peptide 82 (Table 10)] was tested, and the “EC50 at GLP-1 Receptor” value was 0.108 nM.
With B3 the “EC50 at GLP-1 Receptor” value was 0.006 nM.
H[Aib]QGTFTSDK([Ala-Ala-Palmitoyl])SKYLD[Aib]RRAQDFVC(PEG 40 kDa)WLMNT-NH2 [Peptide 79* (Table 10)] was tested, and the “EC50 at GLP-1 Receptor” value was 0.055 nM.
H[Aib]QGTFTSDK([Pro-Pro-Palmitoyl])SKYLD[Aib]RRAQDFVQWLMNT-NH2 [Peptide 87 (Table 10)] was tested, and the “EC50 at GLP-1 Receptor” value was 0.009 nM.
With H[Aib]QGTFTSDK([γGlu-γGlu-Palmitoyl])SKYLD[Aib]RRAQDFVC(PEG 40 kDa)WLMNT-NH2 [Peptide 80* (Table 10)] the “EC50 at GLP-1 Receptor” value was 0.042 nM.
In the case of B4, the “EC50 at GLP-1 Receptor” value is reported as 0.004 nM.
For H[Aib]QGTFTSDK(Myristoyl)SKYLD[Aib]RRAQDFVC(PEG 40 kDa)WLMNT-NH2 [Peptide 77* (Table 10)], the “EC50 at GLP-1 Receptor” value was 1.46 nM.
In the case of B2, the “EC50 at GLP-1 Receptor” value is reported as 0.005 nM.
For H[Aib]QGTFTSDK([γGlu-γGlu-Myristoyl])SKYLD[Aib]RRAQDFVC(PEG 40 kDa)WLMNT-NH2 [Peptide 78* (Table 10)], the “EC50 at GLP-1 Receptor” value was 0.103 nM.

Biological target: T2, GLP-1 receptor
Assay: cell-based or functional assay
Remark: another data set of the same source
Target sequence in this assay (P43220 24-463 limits assumed): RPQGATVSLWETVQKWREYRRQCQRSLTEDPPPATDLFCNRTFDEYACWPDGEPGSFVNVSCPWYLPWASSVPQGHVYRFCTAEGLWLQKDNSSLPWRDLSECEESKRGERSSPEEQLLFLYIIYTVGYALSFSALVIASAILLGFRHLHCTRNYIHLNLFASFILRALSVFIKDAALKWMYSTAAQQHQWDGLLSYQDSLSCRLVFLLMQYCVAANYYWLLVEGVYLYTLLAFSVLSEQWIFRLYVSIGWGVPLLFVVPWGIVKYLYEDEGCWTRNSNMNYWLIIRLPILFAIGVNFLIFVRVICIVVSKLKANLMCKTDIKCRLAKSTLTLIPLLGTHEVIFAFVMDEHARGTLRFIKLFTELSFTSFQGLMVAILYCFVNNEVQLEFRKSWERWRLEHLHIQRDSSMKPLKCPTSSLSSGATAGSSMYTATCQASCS
In the case of B5, the “EC50 at the GLP-1 receptor” value is reported as 0.465 nM.
With H[Aib]QGTFTSDK(C18 fatty acyl)SKYLDEQAAKEFIC(PEG 40 kDa)WLMNT-NH2 [Peptide Chimera 2-AIB2-K10-acylated] the “EC50 at the GLP-1 receptor” value was 0.007 nM.

Source: patent US20110190200A1 (INDIANA UNIVERSITY RESEARCH AND TECHNOLOGY, published 2011)
